PMC12416549 (2024)

T1: TNFR1 (Homo sapiens, UniProt P19438)
T1 chain: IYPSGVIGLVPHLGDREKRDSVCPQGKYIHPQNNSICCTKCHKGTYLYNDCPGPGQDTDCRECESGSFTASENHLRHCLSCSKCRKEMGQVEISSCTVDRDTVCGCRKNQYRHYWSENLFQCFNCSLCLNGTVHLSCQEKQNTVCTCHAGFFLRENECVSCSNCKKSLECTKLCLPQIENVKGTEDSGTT


Target: T1, TNFR1
Test: yeast display SC50

apparent Kd (screen) [pM]	Binder
1690	E45M (designed binder) SMEEEVEKAAKEYEKKKKEAIEKHLEKLKAKDKEAAERFLKELEMAAKEYAKDEAKTMSEEEAKRRAKKYKEKVLLSELSEEEQKEIKEAEEKLVRTILKYVEEAAK
869	K27S (designed binder) SMEEEVEKAAKEYEKKKKEAIEKHLESLKAKDKEAAERFLKELEEAAKEYAKDEAKTMSEEEAKRRAKKYKEKVLLSELSEEEQKEIKEAEEKLVRTILKYVEEAAK
1400	L28G (designed binder) SMEEEVEKAAKEYEKKKKEAIEKHLEKGKAKDKEAAERFLKELEEAAKEYAKDEAKTMSEEEAKRRAKKYKEKVLLSELSEEEQKEIKEAEEKLVRTILKYVEEAAK
2730	D53Y (designed binder) SMEEEVEKAAKEYEKKKKEAIEKHLEKLKAKDKEAAERFLKELEEAAKEYAKYEAKTMSEEEAKRRAKKYKEKVLLSELSEEEQKEIKEAEEKLVRTILKYVEEAAK
2730	E49T (designed binder) SMEEEVEKAAKEYEKKKKEAIEKHLEKLKAKDKEAAERFLKELEEAAKTYAKDEAKTMSEEEAKRRAKKYKEKVLLSELSEEEQKEIKEAEEKLVRTILKYVEEAAK
3000	D32C (designed binder) SMEEEVEKAAKEYEKKKKEAIEKHLEKLKAKCKEAAERFLKELEEAAKEYAKDEAKTMSEEEAKRRAKKYKEKVLLSELSEEEQKEIKEAEEKLVRTILKYVEEAAK
539	K8F (designed binder) SMEEEVEFAAKEYEKKKKEAIEKHLEKLKAKDKEAAERFLKELEEAAKEYAKDEAKTMSEEEAKRRAKKYKEKVLLSELSEEEQKEIKEAEEKLVRTILKYVEEAAK
790	L28H (designed binder) SMEEEVEKAAKEYEKKKKEAIEKHLEKHKAKDKEAAERFLKELEEAAKEYAKDEAKTMSEEEAKRRAKKYKEKVLLSELSEEEQKEIKEAEEKLVRTILKYVEEAAK
1400	K18Q (designed binder) SMEEEVEKAAKEYEKKKQEAIEKHLEKLKAKDKEAAERFLKELEEAAKEYAKDEAKTMSEEEAKRRAKKYKEKVLLSELSEEEQKEIKEAEEKLVRTILKYVEEAAK
304	E81W (designed binder) SMEEEVEKAAKEYEKKKKEAIEKHLEKLKAKDKEAAERFLKELEEAAKEYAKDEAKTMSEEEAKRRAKKYKEKVLLSELSWEEQKEIKEAEEKLVRTILKYVEEAAK
446	A105D (designed binder) SMEEEVEKAAKEYEKKKKEAIEKHLEKLKAKDKEAAERFLKELEEAAKEYAKDEAKTMSEEEAKRRAKKYKEKVLLSELSEEEQKEIKEAEEKLVRTILKYVEEDAK
1690	A35C (designed binder) SMEEEVEKAAKEYEKKKKEAIEKHLEKLKAKDKECAERFLKELEEAAKEYAKDEAKTMSEEEAKRRAKKYKEKVLLSELSEEEQKEIKEAEEKLVRTILKYVEEAAK
718	L40T (designed binder) SMEEEVEKAAKEYEKKKKEAIEKHLEKLKAKDKEAAERFTKELEEAAKEYAKDEAKTMSEEEAKRRAKKYKEKVLLSELSEEEQKEIKEAEEKLVRTILKYVEEAAK
653	E5I (designed binder) SMEEIVEKAAKEYEKKKKEAIEKHLEKLKAKDKEAAERFLKELEEAAKEYAKDEAKTMSEEEAKRRAKKYKEKVLLSELSEEEQKEIKEAEEKLVRTILKYVEEAAK

More lines, now with the values behind:

Binder	apparent Kd (screen) [pM]
E92A (designed binder) SMEEEVEKAAKEYEKKKKEAIEKHLEKLKAKDKEAAERFLKELEEAAKEYAKDEAKTMSEEEAKRRAKKYKEKVLLSELSEEEQKEIKEAEAKLVRTILKYVEEAAK	12500
M2R (designed binder) SREEEVEKAAKEYEKKKKEAIEKHLEKLKAKDKEAAERFLKELEEAAKEYAKDEAKTMSEEEAKRRAKKYKEKVLLSELSEEEQKEIKEAEEKLVRTILKYVEEAAK	539
E19Y (designed binder) SMEEEVEKAAKEYEKKKKYAIEKHLEKLKAKDKEAAERFLKELEEAAKEYAKDEAKTMSEEEAKRRAKKYKEKVLLSELSEEEQKEIKEAEEKLVRTILKYVEEAAK	1540
A105N (designed binder) SMEEEVEKAAKEYEKKKKEAIEKHLEKLKAKDKEAAERFLKELEEAAKEYAKDEAKTMSEEEAKRRAKKYKEKVLLSELSEEEQKEIKEAEEKLVRTILKYVEENAK	1860
K100I (designed binder) SMEEEVEKAAKEYEKKKKEAIEKHLEKLKAKDKEAAERFLKELEEAAKEYAKDEAKTMSEEEAKRRAKKYKEKVLLSELSEEEQKEIKEAEEKLVRTILIYVEEAAK	1400
I21A (designed binder) SMEEEVEKAAKEYEKKKKEAAEKHLEKLKAKDKEAAERFLKELEEAAKEYAKDEAKTMSEEEAKRRAKKYKEKVLLSELSEEEQKEIKEAEEKLVRTILKYVEEAAK	653
E104P (designed binder) SMEEEVEKAAKEYEKKKKEAIEKHLEKLKAKDKEAAERFLKELEEAAKEYAKDEAKTMSEEEAKRRAKKYKEKVLLSELSEEEQKEIKEAEEKLVRTILKYVEPAAK	446
E82I (designed binder) SMEEEVEKAAKEYEKKKKEAIEKHLEKLKAKDKEAAERFLKELEEAAKEYAKDEAKTMSEEEAKRRAKKYKEKVLLSELSEIEQKEIKEAEEKLVRTILKYVEEAAK	490
K11Y (designed binder) SMEEEVEKAAYEYEKKKKEAIEKHLEKLKAKDKEAAERFLKELEEAAKEYAKDEAKTMSEEEAKRRAKKYKEKVLLSELSEEEQKEIKEAEEKLVRTILKYVEEAAK	490
Y13F (designed binder) SMEEEVEKAAKEFEKKKKEAIEKHLEKLKAKDKEAAERFLKELEEAAKEYAKDEAKTMSEEEAKRRAKKYKEKVLLSELSEEEQKEIKEAEEKLVRTILKYVEEAAK	446
K17T (designed binder) SMEEEVEKAAKEYEKKTKEAIEKHLEKLKAKDKEAAERFLKELEEAAKEYAKDEAKTMSEEEAKRRAKKYKEKVLLSELSEEEQKEIKEAEEKLVRTILKYVEEAAK	1050
L75Y (designed binder) SMEEEVEKAAKEYEKKKKEAIEKHLEKLKAKDKEAAERFLKELEEAAKEYAKDEAKTMSEEEAKRRAKKYKEKVYLSELSEEEQKEIKEAEEKLVRTILKYVEEAAK	1860
K52G (designed binder) SMEEEVEKAAKEYEKKKKEAIEKHLEKLKAKDKEAAERFLKELEEAAKEYAGDEAKTMSEEEAKRRAKKYKEKVLLSELSEEEQKEIKEAEEKLVRTILKYVEEAAK	869
L79C (designed binder) SMEEEVEKAAKEYEKKKKEAIEKHLEKLKAKDKEAAERFLKELEEAAKEYAKDEAKTMSEEEAKRRAKKYKEKVLLSECSEEEQKEIKEAEEKLVRTILKYVEEAAK	1860
E91R (designed binder) SMEEEVEKAAKEYEKKKKEAIEKHLEKLKAKDKEAAERFLKELEEAAKEYAKDEAKTMSEEEAKRRAKKYKEKVLLSELSEEEQKEIKEAREKLVRTILKYVEEAAK	6430
L25T (designed binder) SMEEEVEKAAKEYEKKKKEAIEKHTEKLKAKDKEAAERFLKELEEAAKEYAKDEAKTMSEEEAKRRAKKYKEKVLLSELSEEEQKEIKEAEEKLVRTILKYVEEAAK	1860
H24Q (designed binder) SMEEEVEKAAKEYEKKKKEAIEKQLEKLKAKDKEAAERFLKELEEAAKEYAKDEAKTMSEEEAKRRAKKYKEKVLLSELSEEEQKEIKEAEEKLVRTILKYVEEAAK	790
A9T (designed binder) SMEEEVEKTAKEYEKKKKEAIEKHLEKLKAKDKEAAERFLKELEEAAKEYAKDEAKTMSEEEAKRRAKKYKEKVLLSELSEEEQKEIKEAEEKLVRTILKYVEEAAK	446
K27V (designed binder) SMEEEVEKAAKEYEKKKKEAIEKHLEVLKAKDKEAAERFLKELEEAAKEYAKDEAKTMSEEEAKRRAKKYKEKVLLSELSEEEQKEIKEAEEKLVRTILKYVEEAAK	956
E104V (designed binder) SMEEEVEKAAKEYEKKKKEAIEKHLEKLKAKDKEAAERFLKELEEAAKEYAKDEAKTMSEEEAKRRAKKYKEKVLLSELSEEEQKEIKEAEEKLVRTILKYVEVAAK	446
K64Y (designed binder) SMEEEVEKAAKEYEKKKKEAIEKHLEKLKAKDKEAAERFLKELEEAAKEYAKDEAKTMSEEEAYRRAKKYKEKVLLSELSEEEQKEIKEAEEKLVRTILKYVEEAAK	446
